Starred links: 1 amine or outer side, 2 acyl side, 3 side chain; linkers in the order of their positions; H or OH if unused. Non-standard residues stand in square brackets, D forms with d. Groups on a side chain read outwards from the residue. No end group written: not given here. *: point of attachment. C20 diacid = O=C(O)CCCCCCCCCCCCCCCCCCC(=O)*; γGlu = O=C(O)[C@H](CCC(=O)[*:2])N[*:1]; AEEA = NCCOCCOCC(=O)O; Aib = CC(C)(N)C(=O)O
B1: Compound 4 (peptide)
peptide: H[Aib]QGTFTSDYSKYLDEKKAK([Gly-Gly-Glu-Gly-Glu-Gly-γGlu-C20 diacid])EFVEWLLEGGPSSGAPPPS-NH2
B2: Compound 1 (peptide)
peptide: H[Aib]QGTFTSDYSKYLDEKKAK([AEEA-AEEA-γGlu-C20 diacid])EFVEWLLEGGPSSGAPPPS-NH2
B3: Compound 2 (peptide)
peptide: H[Aib]QGTFTSDYSKYLDEKKAK([PEG5CH2CO-γGlu-C20 diacid])EFVEWLLEGGPSSGAPPPS-NH2
B4: Compound 3 (peptide)
peptide: H[Aib]QGTFTSDYSKYLDEKKAKEFVEWLLEGGPSSGAPPPS-NH2
modifications: not fully specified (residue 20)

Key:
glucagon (Gcg) receptor = assay: cell-based or functional assay
[1] = biological target: glucagon-like peptide-1 (GLP-1) receptor; assay: cell-based or functional assay

Binder	Biological activity (%) (cAMP chemiluminescence, RLU, CHO-K1 cells stably expressing GcgR; relative to OXM3) (glucagon (Gcg) receptor)	Relative biological activity (cAMP chemiluminescence, RLU, CHO-K1 cells stably expressing GLP-1R; relative to OXM3) [1] [%]
B1	49.6	116
B2	90.5	188
B3	86.9	260
B4	94.2	158
